Measurements reported in paper PMC2978106, “The Arabidopsis ABA-Activated Kinase OST1 Phosphorylates the bZIP Transcription Factor ABF3 and Creates a 14-3-3 Binding Site Involved in Its Turnover” (PLoS ONE, 2010).
Where no end group is shown, it is not given here. [ ]: non-standard residue; d: D form. pT = C[C@@H](OP(=O)(O)O)[C@H](N)C(=O)O

Biological target: T1, Arabidopsis 14-3-3 protein GF14phi fused to GST (Arabidopsis, UniProt P46077 1-267)
T1 construct: 14-3-3 protein GF14phi of Arabidopsis; also called GST-14-3-3; source: E. coli, loaded on glutathione beads
T1 sequence (looked up): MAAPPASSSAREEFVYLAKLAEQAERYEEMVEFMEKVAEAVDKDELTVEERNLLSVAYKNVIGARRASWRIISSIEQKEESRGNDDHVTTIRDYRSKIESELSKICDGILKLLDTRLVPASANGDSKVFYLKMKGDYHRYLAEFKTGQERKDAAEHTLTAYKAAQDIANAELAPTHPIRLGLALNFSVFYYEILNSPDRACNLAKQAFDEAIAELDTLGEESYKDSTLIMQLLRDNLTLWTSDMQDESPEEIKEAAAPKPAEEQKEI
Test: pull-down; GST-GF14phi (0.4 nmole) on glutathione beads; 15 µM peptide phosphorylated by OST1 with ATP^γ32; 30 min at 25°C; 20 mM Tris-HCl pH 7.5, 150 mM NaCl, 1 mM CaCl2, 1 mM DTT, 0.05% Tween20; bound peptide counted by Cerenkov counting
Conditions: both partners purified

binding result: binds
B1: ABF3T451 peptide phosphorylated by OST1 (peptide)
peptide: KKRQCLRRTL[pT]GPW
modifications: also: phosphothreonine at T451 (T9 or T11 of chain, not fixed by letters)
notes: residues printed before L446 of the ABF3T451 peptide; C-terminal end of ABF3 (C4 domain, LXRXXTXP motif with T451), Arabidopsis thaliana, At4g34000; It holds two threonines (T449, T451); also called pABF3T451; phospho-ABF3T451
